Patent US20130217572A1, “SPECIFIC DELIVERY OF AGROCHEMICALS” (VRIJE UNIVERSITEIT BRUSSEL, priority 2010, published 2013)

How the values were obtained:
potato lectin (Sigma) [1] = biological target: T1, potato lectin (Sigma) (potato, UniProt Q9S8M0 23-323); assay: microcapsule retention; G: amine capsules, BS3 one-step, 1 ug VHH/cm2; potato lectin coat 1 ug/ml; 100% coverage
T1 construct: Bought glycoprotein, coated on ELISA plates
T1 sequence (looked up): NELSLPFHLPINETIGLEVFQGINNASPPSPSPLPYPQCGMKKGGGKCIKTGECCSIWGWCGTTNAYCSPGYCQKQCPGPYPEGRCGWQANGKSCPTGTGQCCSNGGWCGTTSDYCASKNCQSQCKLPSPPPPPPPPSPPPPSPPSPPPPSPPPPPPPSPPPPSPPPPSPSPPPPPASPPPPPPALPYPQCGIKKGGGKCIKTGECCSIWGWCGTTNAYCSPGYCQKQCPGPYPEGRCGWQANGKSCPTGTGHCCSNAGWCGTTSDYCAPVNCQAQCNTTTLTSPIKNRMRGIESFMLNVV

potato lectin (Sigma) [2] = biological target: T1, potato lectin (Sigma); assay: microcapsule retention; G: amine capsules, BS3 one-step, 1 ug VHH/cm2; potato lectin coat 10 ug/ml; 10% coverage
potato lectin (Sigma) [3] = biological target: T1, potato lectin (Sigma); assay: microcapsule retention; K: amine capsules, BS3 two-step, 1 ug VHH/cm2; potato lectin coat 1 ug/ml; 100% coverage
potato lectin (Sigma) [4] = biological target: T1, potato lectin (Sigma); assay: microcapsule retention; K: amine capsules, BS3 two-step, 1 ug VHH/cm2; potato lectin coat 10 ug/ml; 100% coverage
potato lectin (Sigma) [5] = biological target: T1, potato lectin (Sigma); assay: microcapsule retention; H: amine capsules, BS3 one-step, 0.1 ug VHH/cm2; potato lectin coat 10 ug/ml; 10% coverage
potato lectin (Sigma) [6] = biological target: T1, potato lectin (Sigma); assay: microcapsule retention; L: amine capsules, BS3 two-step, 0.1 ug VHH/cm2; potato lectin coat 1 ug/ml; 100% coverage
potato lectin (Sigma) [7] = biological target: T1, potato lectin (Sigma); assay: microcapsule retention; C: carboxyl capsules, EDC/Sulfo-NHS, 1 ug VHH/cm2; potato lectin coat 1 ug/ml; 10% coverage
potato lectin (Sigma) [8] = biological target: T1, potato lectin (Sigma); assay: microcapsule retention; H: amine capsules, BS3 one-step, 0.1 ug VHH/cm2; potato lectin coat 10 ug/ml; 100% coverage
potato lectin (Sigma) [9] = biological target: T1, potato lectin (Sigma); assay: microcapsule retention; H: amine capsules, BS3 one-step, 0.1 ug VHH/cm2; potato lectin coat 100 ug/ml; 100% coverage
potato lectin (Sigma) [10] = biological target: T1, potato lectin (Sigma); assay: microcapsule retention; L: amine capsules, BS3 two-step, 0.1 ug VHH/cm2; potato lectin coat 100 ug/ml; 100% coverage
potato lectin (Sigma) [11] = biological target: T1, potato lectin (Sigma); assay: microcapsule retention; C: carboxyl capsules, EDC/Sulfo-NHS, 1 ug VHH/cm2; potato lectin coat 10 ug/ml; 100% coverage
potato lectin (Sigma) [12] = biological target: T1, potato lectin (Sigma); assay: microcapsule retention; D: carboxyl capsules, EDC/Sulfo-NHS, 0.1 ug VHH/cm2; potato lectin coat 1 ug/ml; 10% coverage
potato lectin (Sigma) [13] = biological target: T1, potato lectin (Sigma); assay: microcapsule retention; C: carboxyl capsules, EDC/Sulfo-NHS, 1 ug VHH/cm2; potato lectin coat 100 ug/ml; 100% coverage
potato lectin (Sigma) [14] = biological target: T1, potato lectin (Sigma); assay: microcapsule retention; D: carboxyl capsules, EDC/Sulfo-NHS, 0.1 ug VHH/cm2; potato lectin coat 10 ug/ml; 10% coverage
potato lectin (Sigma) [15] = biological target: T1, potato lectin (Sigma); assay: microcapsule retention; D: carboxyl capsules, EDC/Sulfo-NHS, 0.1 ug VHH/cm2; potato lectin coat 10 ug/ml; 100% coverage
potato lectin (Sigma) [16] = biological target: T1, potato lectin (Sigma); assay: microcapsule retention; D: carboxyl capsules, EDC/Sulfo-NHS, 0.1 ug VHH/cm2; potato lectin coat 100 ug/ml; 10% coverage
[17] = test system: intact living potato pot plants; assay: VHH binding to intact living plants; design: species or system potato (variety Désirée); details: leaves attached to potato pot plant submerged in VHH solution in PBS, 1 hour
Method: Binding of VHH to intact living plants was investigated on potato pot plants (variety Désirée). Compound leaves of intact living plants were submersed in solutions of hexahistidine-tagged VHH in PBS, or PBS alone for control conditions, leaving the compound leaves attached to the plants. VHH were allowed to bind for 1 hour. Next, the compound leaves still attached to the plants were washed five times in PBS in Erlenmeyer flasks. Different leaves and petiole sections were sampled. Bound VHH were detected by incubation with monoclonal mouse anti-histidine antibodies directly conjugated with Alexa-488 fluorescent dye (Abd Serotec) in PBS for 1 hour. Unbound anti-histidine antibodies were removed by washing five times with PBS. Whole leaves, leaf discs, or petiole sections were analyzed for bound VHH with microscopy.

potato lectin (Sigma) [18] = biological target: T1, potato lectin (Sigma); assay: ELISA, potato lectin coated at 100 ug/ml, VHH at 3 ug/ml, anti-histidine detection
Method: ELISA plates (Maxisorp, Nunc) coated with 100 μl per well 100 μg/ml potato lectin (Sigma) in PBS were coated at 4° C. overnight and coating was continued at room temperature for 1 hour on the next day. Plates were washed three times with PBS/0.05%-TWEEN®-20 and blocked with 5% skimmed milk in PBS for 1 hour. VHH (3 μg/ml) were transferred to the potato lectin-coated plates and VHH antibody fragments were allowed to bind for 1 hour at room temperature. Bound VHH were detected with sequential incubations with monoclonal mouse anti-histidine antibodies (Abd Serotec) and rabbit anti-mouse IgG whole molecule antibodies conjugated with alkaline phosphatase (RaM/AP) (Sigma) in 1% MPBS/0.05%-TWEEN®-20. Unbound antibodies were removed by washing three times with PBS/0.05%-TWEEN®-20 after each antibody incubation. The plates were washed an additional two times with PBS and 100 μl pNPP disodium hexahydrate substrate (Sigma) was added to each well and the absorbance at 405 nm was measured (see Table 2).

unrelated antigens = assay: VHH-coupled lambda-cyhalothrin microcapsules retained on wells coated with unrelated antigen; 4% surface coverage

Row | Molecule | microcapsule counts (microcapsules) (potato lectin (Sigma) [1]) | microcapsule counts (microcapsules) (potato lectin (Sigma) [2]) | microcapsule counts (microcapsules) (potato lectin (Sigma) [3]) | microcapsule counts (microcapsules) (potato lectin (Sigma) [4]) | microcapsule counts (microcapsules) (potato lectin (Sigma) [5]) | microcapsule counts (microcapsules) (potato lectin (Sigma) [6]) | microcapsule counts (microcapsules) (potato lectin (Sigma) [7]) | microcapsule counts (microcapsules) (potato lectin (Sigma) [8]) | microcapsule counts (microcapsules) (potato lectin (Sigma) [9]) | microcapsule counts (microcapsules) (potato lectin (Sigma) [10]) | microcapsule counts (microcapsules) (potato lectin (Sigma) [11]) | microcapsule counts (microcapsules) (potato lectin (Sigma) [12]) | microcapsule counts (microcapsules) (potato lectin (Sigma) [13]) | microcapsule counts (microcapsules) (potato lectin (Sigma) [14]) | microcapsule counts (microcapsules) (potato lectin (Sigma) [15]) | microcapsule counts (microcapsules) (potato lectin (Sigma) [16]) | binding to an intact living plant [17] | absorbance at 405 nm (potato lectin (Sigma) [18]) | counts of bound microcapsules (microcapsules) (unrelated antigens)
1 | Control VHH | 46 | 13 | 617 | 903 | 215 | 860 | 49 | 780 | 622 | 1110 | 265 | 64 | 297 | 118 | 475 | 125 |  |  | 
2 | VHH 3E6 (VHH, also called Monovalent VHH 3E6) VHH: QVQLQESGGGLVQPGGTLSLSCAASGFNVRWYGMGWFRQAPGKEREGVACISALQETTAYADSVKGRFTLSRDNPKNTLSLQMNNLQPEDTGVYYCATTDCDDSSRMTYTSYLGQGTQVTVSS |  |  |  |  |  |  |  |  |  |  |  |  |  |  |  |  | binding leaf surface, stomata, glandular trichomes, and leaf hairs | 4 | 386
